Assay results: US20090325867A1, “RECEPTOR-SPECIFIC TUMOUR NECROSIS FACTOR-RELATED APOPTOSIS-INDUCING LIGAND (TRAIL) VARIANTS” (MEDICAL RESEARCH COUNCIL, priority 2005, published 2009)

B1: TRAIL.R2-6: His-TRAIL (95-281) with 189Gln, 191Lys, 193Arg, 264Arg, 266Leu, 267Gln; TRAIL-R2 selective mutant (protein)
chain: TSEETISTVQEKQQNISPLVRERGPQRVAAHITGTRGRSNTLSSPNSKNEKALGRKINSWESSRSGHSFLSNLHLRNGELVIHEKGFYYIYSQTQFKFREEIKENTKNDKQMVQYIYKYTSYPDPILLMKSARNSCWSKDAEYGLYSIYQGGIFELKENDRIFVSVTNERLLQMDHEASFFGAFLVG
modifications: biotin (site not stated) in the DISC analysis only; not biotinylated in the apoptosis assays
B2: wild type: His-tagged human recombinant TRAIL residues 95-281, wild type sequence (protein)
chain: TSEETISTVQEKQQNISPLVRERGPQRVAAHITGTRGRSNTLSSPNSKNEKALGRKINSWESSRSGHSFLSNLHLRNGELVIHEKGFYYIYSQTYFRFQEEIKENTKNDKQMVQYIYKYTSYPDPILLMKSARNSCWSKDAEYGLYSIYQGGIFELKENDRIFVSVTNEHLIDMDHEASFFGAFLVG
modifications: biotin (site not stated) in the DISC analysis only; not biotinylated in the apoptosis assays

Legend:
[1] = tested on: primary MCL cells; experiment: Apoptosis in freshly isolated primary MCL cells with or without depsipeptide pre-treatment; assay type: cell-based, human; details: spontaneous apoptosis 23.4±2.9%
Protocol: Cell lines were also pre-incubated for 30 min with a TRAIL-R1 blocking Ab and a TRAIL-R2 neutralizing Ab from Alexis and R&D systems, respectively, prior to exposure to TRAIL. Freshly isolated cells from patients with MCL were isolated, purified and incubated with different forms of TRAIL as described above for CLL cells. Samples were either analyzed immediately for apoptosis or stored at −80° C. for subsequent Western blotting. Other methods and reagents were as described (Inoue (2004 Cell Death Differ 11 Suppl 2, S193-206); MacFarlane et al., 2005 ibid).
(§1) Apoptosis was quantified by phosphatidylserine (PS) externalization in the presence of propidium iodide as described (MacFarlane et al., 2002 ibid.). Samples for Western blot analysis were prepared and caspase processing detected as described (Inoue et al., 2004 ibid.; MacFarlane et al., 2005 ibid.).
We also obtained three samples from patients with mantle cell lymphoma (MCL), an incurable and aggressive disease that accounts for ˜6% of all non-Hodgkin's lymphoma. There are no standard treatments for MCL and the prognosis is very poor particularly for the blastoid variant. MCL cells were isolated and exposed to the different forms of TRAIL after pre-treatment for 16 h with depsipeptide (5 nM).

[2] = target: TRAIL receptor 1 (TRAIL-R1) (Homo sapiens (Human)) (UniProt O00220)
[3] = target: TRAIL receptor 1 (TRAIL-R1) (Homo sapiens (Human)) (UniProt O00220); remark: listed apart in the source
[4] = tested on: Jurkat cells; experiment: Apoptosis by phosphatidylserine (PS) externalization in Jurkat cells; assay type: cell-based
Protocol: Cells were also exposed to HGS-ETR1 or HGSETR2 (1 μg ml^−1). C: Ramos or Jurkat cells were pre-incubated for 30 min either alone or with TRAIL-R1 blocking Ab or TRAIL-R2 neutralizing Ab (5 μg ml^−1). […] D: Ramos and Jurkat cells were exposed to wt TRAIL or TRAIL mutants as described above and processing of caspase-3 and -8 determined by Western blot analysis. The asterisk indicates a non-specific band. The lower panel of the blot for detection of the caspase-8 p18 subunit was exposed for twice as long as the upper panel. Apoptosis was assessed by phosphatidylserine externalization and results expressed as the Means±SEM of at least 3 separate determinations. […]
as §1
(§2) Ramos and Jurkat T cells (clone E6-1) were cultured as described (MacFarlane et al, 2005 ibid.). The breast tumour cell line, MCF-7 (clone F43) was cultured as described previously (MacFarlane et al., 2000 J. Cell Biol. 148, 1239-1254). Cells were cultured for either 4 h (Ramos and Jurkat) or 6 h (MCF-7) with His-TRAIL (MacFarlane et al, 1997 J Biol Chem 272, 25417-25420), HGS-ETR1 or HGS-ETR2 (Human Genome Sciences), or a mutant form of His-TRAIL (MacFarlane et al, 2005 ibid.). Samples were analyzed for apoptosis, Western blotting, or TRAIL DISC activation as described (MacFarlane et al, 2005 ibid.; MacFarlane et al. 2002 Oncogene 21, 6809-6818). Mutants of His-TRAIL (residues 95-281) were generated using the Quik-Change site-directed mutagenesis kit (Stratagene, Calif.), confirmed by DNA sequencing, expressed in E. coli and purified as described (MacFarlane et al, 1997 ibid.). For siRNA targeting of TRAIL-R1/-R2, MCF-7 cells were seeded into six-well plates immediately prior to effectene-mediated RNAi transfection with either a negative control siRNA (30 nM, Ambion, #4611), or preannealed siRNA oligonucleotides for TRAIL-R1 or TRAIL-R2 (30 nM, Ambion), with the sequence and validity described (Ren et al, 2004 Mol. Biol. Cell vol 15 pp 5064-5074). After 40 h of transfection the cells were collected and total TRAIL-R1 or TRAIL-R2 levels assessed. Where indicated, RNAi transfected MCF-7 cells were either left untreated or exposed to wt-TRAIL and apoptosis assessed by the extent of Bax activation, determined using the conformation specific Bax MAb, clone 3 (Dewson et al, 2003 Oncogene vol 22 pp 2643-54).

[5] = tested on: Jurkat cells; experiment: Caspase-8 and -3 processing by Western blot in Jurkat cells; assay type: cell-based; details: FIG. 1D
Protocol: (§3) Cells were also exposed to HGS-ETR1 or HGSETR2 (1 μg ml^−1). C: Ramos or Jurkat cells were pre-incubated for 30 min either alone or with TRAIL-R1 blocking Ab or TRAIL-R2 neutralizing Ab (5 μg ml^−1). […] D: Ramos and Jurkat cells were exposed to wt TRAIL or TRAIL mutants as described above and processing of caspase-3 and -8 determined by Western blot analysis. The asterisk indicates a non-specific band. The lower panel of the blot for detection of the caspase-8 p18 subunit was exposed for twice as long as the upper panel. Apoptosis was assessed by phosphatidylserine externalization and results expressed as the Means±SEM of at least 3 separate determinations.
as §1
(§4) To confirm that the mutants were inducing apoptosis, we examined their effects on the processing of caspase-8, the apical caspase in death receptor-induced apoptosis and caspase-3, an effector caspase.

[6] = tested on: TRAIL DISC in Ramos cells; experiment: DISC analysis with biotinylated TRAIL in Ramos cells; assay type: cell-based; details: biotinylated ligand 500 ng ml^−1, 30 min
Protocol: (§5) After exposure of the cells for 30 min, DISC complexes were isolated and analyzed for the indicated proteins by Western blotting. To provide an unstimulated receptor control (u/s), biotinylated wt or mutant TRAIL was added to lysate from untreated cells. C: Freshly isolated cells from patients with CLL were incubated for 16 h either alone or in the presence of depsipeptide (10 nM). […] The different symbols used indicate data from six individual patients and the solid line indicates the Mean.
(§6) Ramos or Jurkat cells (5×10^7 cells per treatment) were exposed to biotin-tagged recombinant His-TRAIL (biotinylated TRAIL) or one of its mutant forms (500 ng ml^−1) for 30 min and then DISC formation assessed as described previously (MacFarlane et al., 2002 ibid.).

[7] = tested on: Ramos cells; experiment: Caspase-8 and -3 processing by Western blot in Ramos cells; assay type: cell-based; details: FIG. 1D
Protocol: as §3, §1, §4

[8] = tested on: Ramos cells; experiment: Apoptosis by phosphatidylserine (PS) externalization in Ramos cells; assay type: cell-based; details: for % PS+ cells, Ramos: 4 h exposure, 500 ng ml^−, Mean ± SEM of at least three determinations
Protocol: as §3
(§7) Ramos, an Epstein-Barr virus-negative Burkitt's lymphoma cell line, and Jurkat T cells (clone E6-1) were cultured as described (MacFarlane et al (2005 Cell Death and Differentiation vol 12 pages 773-782)). Blood samples were obtained from CLL patients, with patient consent and local ethical committee approval and CLL cells purified as described (MacFarlane et al (2002 Oncogene 21, 6809-6818). Cells were incubated for 16 h with depsipeptide (10 nM), provided by Dr. E. Sausville (NCI, USA). Cells were then cultured for a further 6 h with either HGSETR1 or HGS-ETR2, agonistic mAbs to TRAIL-R1 or -R2, respectively (Human Genome Sciences, Rockville, Md.), His-TRAIL-LE (a recombinant TRAIL with low endotoxin—Alexis Corporation, Nottingham, UK), His-TRAIL, a similar form of human recombinant TRAIL (MacFarlane et al (1997 J Biol Chem 272, 25417-25420)) but not further purified to reduce endotoxin levels or a mutant form of His-TRAIL as described (MacFarlane et al., 2005 ibid.). Cell lines were also pre-incubated for 30 min with a TRAIL-R1 blocking Ab and a TRAIL-R2 neutralizing Ab from Alexis and R&D systems, respectively, prior to exposure to TRAIL. Freshly isolated cells from patients with MCL were isolated, purified and incubated with different forms of TRAIL as described above for CLL cells. Samples were either analyzed immediately for apoptosis or stored at −80° C. for subsequent Western blotting. Other methods and reagents were as described (Inoue (2004 Cell Death Differ 11 Suppl 2, S193-206); MacFarlane et al., 2005 ibid).
as §1
as §2, with “Where indicated, RNAi transfected MCF-7 cells were either left untreated or exposed to wt-TRAIL and apoptosis assessed by the extent of Bax activation, determined using the conformation specific Bax MAb, clone 3 (Dewson et al, 2003 Oncogene vol 22 pp 2643-54).” left out

[9] = tested on: primary CLL cells; experiment: Apoptosis in freshly isolated CLL cells after depsipeptide; assay type: cell-based, human; details: depsipeptide 10 nM 16 h, then 6 h ligand or antibody, FIG. 2C
Protocol: as §5, §7, §1

[10] = tested on: TRAIL DISC in Jurkat cells; experiment: DISC analysis with biotinylated TRAIL in Jurkat cells; assay type: cell-based; details: biotinylated ligand 500 ng ml^−1, 30 min
Protocol: as §5, §6

[11] = PS externalization, compared with wt TRAIL

Row | Molecule | processing of caspases-8 and -3 [5] | DISC formation: receptor bound, FADD and caspase-8 recruitment [6] | processing of caspase-8 and caspase-3 [7] | % PS+ cells, Ramos [8] | sensitization of CLL cells to induced apoptosis by depsipeptide [9] | DISC formation: receptor bound, FADD and caspase-8 recruitment [10] | also measured
1 | C/C=C1\NC(=O)[C@H]2CSSCC/C=C/[C@H](CC(=O)N[C@H](C(C)C)C(=O)N2)OC(=O)[C@H](C(C)C)NC1=O [depsipeptide, reference compound] |  |  |  |  |  |  | apoptosis, depsipeptide alone ([1]; depsipeptide 5 nM 16 h): 35.4±5%
2 | His-TRAIL (wild type, residues 95-281) (from UniProt P50591) (ligand) |  |  |  |  |  |  | % PS+ cells (apoptosis by phosphatidylserine externalization), Ramos cells, 4 h, 500 ng/ml [2]: 41.8 % PS+ cells; apoptosis of primary MCL cells without depsipeptide [3]: 25.5%
3 | HGS-ETR1 (antibody) |  |  |  |  |  |  | apoptosis of primary MCL cells after depsipeptide (5 nM, 16 h) [3]: 68.2%
4 | B1 | most potent | failed to recruit FADD or caspase-8 to the DISC | not | 9.4 ± 1.6% | lack of activity and not | bound TRAIL-R2 extensively in the DISC | inhibition of induced apoptosis by TRAIL-R1 blocking Ab ([4]; 30 min pre-incubation with Ab (5 μg ml^−1)): not; % PS+ cells, Jurkat ([4]; 4 h exposure, 500 ng ml^−, Mean ± SEM of at least three determinations): 58.4 ± 11.6%; ability to induce apoptosis in Jurkat cells (in words) [4, 11]: potently induced apoptosis; ability to induce apoptosis in Ramos cells (in words) [8, 11]: not in Ramos cells
5 | B2 | most potent | bound both TRAIL-R1 and -R2, and recruited FADD and caspase-8 | induced the processing | 41.8 ± 5.2% | sensitized CLL cells | bound TRAIL-R2 extensively in the DISC | apoptosis, ligand alone ([1]; no depsipeptide): 25.5±3.8%
